Six molecules from patent US20090317414A1 (4G VACCINES, published 2009) can be followed below.

T1: MHC class I H-2K^b on RMA-S cells (C57BL/6 TAP2-deficient cells) (mouse, UniProt P01887 21-119; P01901 22-369)
T1 construct: whole, on cells; Cell surface H-2K^b stabilised by added peptide and detected with anti-H-2K^b antibody HB-158
T1 sequence (MHC heavy, looked up): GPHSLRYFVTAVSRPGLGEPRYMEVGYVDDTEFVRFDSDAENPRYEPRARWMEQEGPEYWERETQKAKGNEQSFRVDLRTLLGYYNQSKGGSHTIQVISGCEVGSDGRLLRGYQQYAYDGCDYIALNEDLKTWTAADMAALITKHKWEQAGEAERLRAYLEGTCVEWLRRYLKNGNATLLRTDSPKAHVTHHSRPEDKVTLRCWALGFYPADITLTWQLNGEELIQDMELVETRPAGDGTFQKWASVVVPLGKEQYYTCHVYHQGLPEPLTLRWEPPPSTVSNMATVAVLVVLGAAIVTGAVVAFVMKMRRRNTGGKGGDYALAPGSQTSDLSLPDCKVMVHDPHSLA
T1 sequence (b2m, looked up): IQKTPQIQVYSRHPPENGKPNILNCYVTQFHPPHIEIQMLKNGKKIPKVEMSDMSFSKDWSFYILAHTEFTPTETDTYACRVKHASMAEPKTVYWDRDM

B1: soluble H-2K^b (soluble extracellular domains; heavy chain residues 1-274 with C-terminal His-tag and β2-microglobulin residues 1-99) (other)
chain: GPHSLRYFVTAVSRPGLGEPRYMEVGYVDDTEFVRFDSDAENPRYEPRARWMEQEGPEYWERETQKAKGNEQSFRVDLRTLLGYYNQSKGGSHTIQVISGCEVGSDGRLLRGYQQYAYDGCDYIALNEDLKTWTAADMAALITKHKWEQAGEAERLRAYLEGTCVEWLRRYLKNGNATLLRTDSPKAHVTHHSRPEDKVTLRCWALGFYPADITLTWQLNGEELIQDMELVETRPAGDGTFQKWASVVVPLGKEQYYTCHVYHQGLPEPLTLRWEPPPSTVSNM
B2: MUC1-8 (SAPDTRPA) (peptide)
peptide: SAPDTRPA
notes: Synthetic peptide, purity >95%; also called MUC1-8 peptide; parent non-canonical peptide MUC1-8
B3: MUC1-8-5F8L (SAPDFRPL) (peptide)
peptide: SAPDFRPL
notes: Synthetic peptide
B4: MUC1-8-5F (SAPDFRPA) (peptide)
peptide: SAPDFRPA
notes: Synthetic peptide
B5: MUC1-8-8L (SAPDTRPL) (peptide)
peptide: SAPDTRPL
notes: Synthetic peptide
B6: OVA8 (SIINFEKL), Chicken ovalbumin257-264 (peptide)
peptide: SIINFEKL

Assay [1] deals with SEV9 ([…]), Sendai virus NP324-332 (Sendai virus). In words: inhibition assay with soluble H-2K^b, 37° C.
Assay [2] shares this target. Briefly: inhibition assay with soluble H-2K^b, 4° C.
For assay [3] the target is unchanged. Briefly: inhibition assay with soluble H-2K^b, 23° C.
Assay [4] concerns the target T1, MHC class I H-2K^b on RMA-S cells …. Briefly: peptide stabilisation assay on RMA-S cells, flow cytometry with anti-H-2K^b.
Description: MHC class I molecules in the murine cell line RMA-S (C57BL/6 TAP2-deficient cells) can be used to measure the direct binding of peptides to class I molecules in vitro. […] The cells were washed once again and 100 μl (1:500 dilution) of FITC-conjugated sheep (Fab′)₂ anti-mouse immunoglobulin was added and incubated for 45 min at 4° C.; after further washing, cells were analyzed by FACScan.
Assay [5] addresses B1. Briefly: inhibition assay with soluble H-2K^b, 37° C.
In assay [6] the target is B1. Briefly: inhibition assay with soluble H-2K^b, 4° C.
Assay [7] addresses B1. Briefly: inhibition assay with soluble H-2K^b, 23° C.
The target of assay [8] is B1. In words: inhibition assay with soluble H-2K^b, 23° C. The source holds these as a separate data set.
The target of assay [9] is B1. Briefly: inhibition assay with soluble H-2K^b, 23° C. and 37° C.

Where only a bound is given, the exact number is not on record here.

As for B1, the equilibrium dissociation constant (Kd) stood at 30 nM in [1], 5 nM in assay [2] and 3 nM in assay [3].

Regarding B2, in assay [4], the “peptide concentration that stabilised H-2K^b” value is more than 100000 nM. The dissociation constant (Kd) came out at 37000 nM in assay [5], 433 nM in assay [6] and 877 nM in [7].

Turning to B3, the “peptide concentration that stabilised H-2K^b” value in [4] is more than 1 nM. For the same molecule, the Kd in [5] is 300 nM; in assay [6], 160 nM; in [7], 60 nM. Besides, in assay [8], the “fold increase in affinity against MUC1-8” value is 14 fold.

On to B4, for which the “peptide concentration that stabilised H-2K^b” value in [4] was more than 100 nM. The Kd in [5] came out at 4900 nM; in assay [6] it was 460 nM; in assay [7] it was 130 nM. The “fold increase in affinity against MUC1-8” value in [9] was not below 7 fold.

As for B5, the “peptide concentration that stabilised H-2K^b” value in [4] was more than 1000 nM. Moreover, the Kd turned out to be 8900 nM in [5], 150 nM in [6] and 250 nM in [7]. Also, the “fold increase in affinity against MUC1-8” value in [9] is not below 3 fold.

With B6, the Kd in assay [5] is 82 nM; in [6], 6 nM; in assay [7], 10 nM.
